Measured values: US8293494

Tests used:
[1] = target: histone H3 monomethylated at lysine 9 (core histones or nucleosomes from HeLa cells), P68431
[2] = target: histone H3 trimethylated at lysine 9 (core histones or nucleosomes from HeLa cells), P68431
[3] = target: histone H3 dimethylated at lysine 9 (core histones or nucleosomes from HeLa cells), P68431

| Protein | in vitro demethylation assay, Western blot with α-monomethyl H3K9 [1] | in vitro demethylation assay, Western blot with α-trimethyl H3K9 [2] | in vitro demethylation assay, Western blot with α-dimethyl H3K9 [3] |
| --- | --- | --- | --- |
| recombinant JMJD2C (aa 12-349) (protein) PSCKIMTFRPSMEEFREFNKYLAYMESKGAHRAGLAKVIPPKEWKPRQCYDDIDNLLIPAPIQQMVTGQSGLFTQYNIQKKAMTVKEFRQLANSGKYCTPRYLDYEDLERKYWKNLTFVAPIYGADINGSIYDEGVDEWNIARLNTVLDVVEEECGISIEGVNTPYLYFGMWKTTFAWHTEDMDLYSINYLHFGEPKSWYAIPPEHGKRLERLAQGFFPSSSQGCDAFLRHKMTLISPSVLKKYGIPFDKITQEAGEFMITFPYGYHAGFNHGFNCAESTNFATVRWIDYGKVAKLCTCRKDMVKISMDIFVRKFQPDRYQLWKQGKDIYTIDHTKPT | the methylation status of mono- and dimethyl H3K9 is not altered | Recombinant JMJD2C very efficiently demethylates trimethyl H3K9 on both core histones and nucleosomes in vitro | the methylation status of mono- and dimethyl H3K9 is not altered |
| mutant JMJD2C H190A (aa 12-349) (protein) PSCKIMTFRPSMEEFREFNKYLAYMESKGAHRAGLAKVIPPKEWKPRQCYDDIDNLLIPAPIQQMVTGQSGLFTQYNIQKKAMTVKEFRQLANSGKYCTPRYLDYEDLERKYWKNLTFVAPIYGADINGSIYDEGVDEWNIARLNTVLDVVEEECGISIEGVNTPYLYFGMWKTTFAWATEDMDLYSINYLHFGEPKSWYAIPPEHGKRLERLAQGFFPSSSQGCDAFLRHKMTLISPSVLKKYGIPFDKITQEAGEFMITFPYGYHAGFNHGFNCAESTNFATVRWIDYGKVAKLCTCRKDMVKISMDIFVRKFQPDRYQLWKQGKDIYTIDHTKPT |  | the enzymatically impaired mutant JMJD2C H190A fails to demethylate |  |
